Experimental data: patent publication US7910549 (INSTITUTE OF VIROLOGY OF THE SLOVAK ACADEMY OF SCIENCES, dated 2011)
Where no end group is shown, it is not given here.

B1: nonapeptide ASASAPVSA [SEQ ID NO: 139] (peptide)
peptide: ASASAPVSA-NH2
notes: Synthetic; phage-selected heptapeptide with alanine added on both sides
B2: nonapeptide AITFNAQYA [SEQ ID NO: 138] (peptide)
peptide: AITFNAQYA-NH2
notes: as for B1
B3: nonapeptide AKKMKRRKA [SEQ ID NO: 137] (peptide)
peptide: AKKMKRRKA-NH2
notes: as for B1
B4: oligopeptide … (aa 75-98) [SEQ ID NO: 106] (peptide)
peptide: EDPPGEEDLPGEEDLPGEEDLPEV

What was measured:
[1] = target: B4; experiment: phage display (Ph.D.-7): panning on immobilized peptide SEQ ID NO: 106, elution with M75, 5 cycles
[2] = target: T1, GST-MN fusion protein (MN glutathione S-transferase), expressed in bacteria from pGEX-3X-MN (human, UniProt Q16790 38-459); experiment: competition ELISA on immobilized GST-MN; competitor M75
[3] = target: T1, GST-MN fusion protein (MN glutathione …); experiment: phage display panning on GST-MN, elution with acetazolamide
[4] = target: T2, monoclonal antibody M75 (MAb M75), secreted by hybridoma VU-M75, ATCC HB 11128; experiment: competition ELISA (peptide against immobilized GST-MN for M75)
T2 construct: Mouse IgG; used as ascites fluid in the ELISA and in the cell adhesion tests; also called MAb 75

[5] = target: T1, GST-MN fusion protein (MN glutathione …); experiment: phage display (Ph.D.-7): panning on wells coated with GST-MN, elution by acetazolamide, 3 rounds

Binder	binding result [1]	binding result [2]	also measured
KKMKRRK	binds	–	–
B1	–	binds	–
B2	–	binds	–
GQTRSPL [phage-displayed heptapeptide GQTRSPL (SEQ ID NO: 109)]	–	–	binding result [3]: binds
ITFNAQY	binds	–	–
B3	–	binds	–
B4	–	–	IC50 [4]: 1 ng/mL
GETRAPL [phage-displayed heptapeptide GETRAPL (SEQ ID NO: 107)]	–	–	binding result [5]: binds
GETREPL [phage-displayed heptapeptide GETREPL (SEQ ID NO: 108)]	–	–	binding result [5]: binds
SASAPVS	binds	–	–
